{"source": "paper PMC3099244", "target": "TAP-tagged wild-type Dyn1-GFP (cytoplasmic dynein heavy chain) (S. cerevisiae) (UniProt P36022)", "experiment": "single-molecule stepwise photobleaching"}
{"substance": "TAP-tagged wild-type Dyn1-GFP (cytoplasmic dynein heavy chain), P36022 1-4092", "values": [{"measurement": "stoichiometry N", "value": 2}]}
